Data as given in publication PMC7578760.

B1: DUSP6 site #5 (ITC) (dsDNA)
DNA 1: GGCAGCTTCATTGAGAGAGA
DNA 2: TCTCTCTCAATGAAGCTGCC
B2: DUSP6 site #5 (EMSA) (dsDNA)
DNA 1: GGCAGCTTCATTGAGAGAGA
DNA 2: TCTCTCTCAATGAAGCTGCC
B3: DUSP6 site #6 (EMSA) (dsDNA)
DNA 1: GAGAGATTCATTGACACTAA
DNA 2: TTAGTGTCAATGAATCTCTC
B4: DUSP6 mutant site #4 (EMSA) (dsDNA)
DNA 1: TTGGATTTAGCTCACTGGGG
DNA 2: CCCCAGTGAGCTAAATCCAA
B5: DUSP6 site #4 (ITC) (dsDNA)
DNA 1: TTGGATTTCATTCACTGGGG
DNA 2: CCCCAGTGAATGAAATCCAA
B6: DUSP6 site #4 (EMSA) (dsDNA)
DNA 1: TTGGATTTCATTCACTGGGG
DNA 2: CCCCAGTGAATGAAATCCAA
B7: DUSP6 site #6 (ITC) (dsDNA)
DNA 1: GAGAGATTCATTGACACTAA
DNA 2: TTAGTGTCAATGAATCTCTC

Key:
CIC-HMG/C1 fusion [1] = molecular target: T1, CIC-HMG/C1 fusion (UniProt Q96RK0-2 188-288+1401-1608, internal_change); assay: ITC
CIC-HMG/C1 fusion [2] = molecular target: T1, CIC-HMG/C1 fusion; assay: EMSA
CIC-HMG = CIC-HMG (UniProt Q96RK0-2 188-288); assay: ITC

| Binder | binding result (CIC-HMG/C1 fusion [1]) | binding result (CIC-HMG/C1 fusion [2]) | binding result (CIC-HMG) |
| --- | --- | --- | --- |
| B1 | binds |  |  |
| B2 |  | binds |  |
| B3 |  | binds |  |
| B4 |  | no binding |  |
| B5 | binds |  | no binding |
| B6 |  | binds |  |
| B7 | binds |  |  |
